As a reminder, the pKd is −log10 of the Kd, conventionally taken in molar units. A high value points to a small Kd. In general, koff refers to the rate constant with which the complex falls apart. What is called stoichiometry N is the number of molecules, sites or subunits per partner or assembly.

Our source for the Kd, koff and stoichiometry N values is article PMC4528106.

In assay [1] the target is HKU4-CoV 3CLpro (bat coronavirus HKU4).
Assay [2] concerns the target MERS-CoV 3CLpro (nsp5 protease), without any N- or C-terminal extensions (MERS-CoV).
The target is the same in assay [3]. Put plainly: AUC.
Assay [4] deals with SARS-CoV 3CLpro with authentic N and C termini (SARS-CoV).

pKd: −log10 of the molar value. Where two headings read alike, the source gives them in different places.

On to HKU4-CoV 3CLpro (enzyme), for which the pKd in assay [1] is 7.00.
For the substance “MERS-CoV 3CLpro (nsp5 protease), without any N- or C-terminal extensions (enzyme)”, the pKd in assay [2] was 5.11. In assay [3], the pKd was 4.28, the koff was 0.0001 s⁻¹ and the stoichiometry N was 2.
Substance “SARS-CoV 3CLpro with authentic N and C termini (enzyme)” showed a pKd in assay [4] of 7.22.
